{
  "source": "paper PMC10558804",
  "test_in_all_cases": "native gel or EMSA; blue native-PAGE (BN-PAGE) of membrane proteins extracted from whole-cell lysates of transfected HEK 293 cells, 10 mM n-dodecyl-β-maltoside, 4 to 16% (or 3 to 12%) Bis/Tris gels, Western blot with anti-GluA1 or anti-GluA2; AMPAR subunit expressed alone or with an auxiliary subunit (cDNA 1:1); oligomeric states (tetramer, dimer, monomer) by molecular mass; tetramer fraction from band intensities; association of an auxiliary subunit read from the upshift of the tetramer band",
  "key": {"[1]": {"biological_target": "GluA1(G816A) (rat (Rattus norvegicus))"}, "[2]": {"biological_target": "GluA1-TARP γ-2 tandem (rat (Rattus norvegicus) | rat)"}, "[3]": {"biological_target": "GluA1-ΔECD (GluA1 lacking the extracellular ATD and LBD) (rat (Rattus norvegicus))"}, "[4]": {"biological_target": "GluA1 (rat, flip splice variant), wild type (rat (Rattus norvegicus))"}, "[5]": {"biological_target": "GluA2(R)(G823A) (rat (Rattus norvegicus))"}, "[6]": {"biological_target": "GluA2(R) (rat, flip splice variant, edited (R) form) (rat (Rattus norvegicus))"}, "[7]": {"biological_target": "GluA1(G816A)-TARP γ-2 tandem (rat (Rattus norvegicus) | rat)"}},
  "data": [
    {"substance": "GluA1(G816A) (receptor)", "values": [
      {"measurement": "tetramer fraction", "setting": "[1]", "result": 0.52}
    ]},
    {"substance": "GluA1-TARP γ-2 tandem", "values": [
      {"measurement": "stoichiometry N", "setting": "[2]", "result": 4}
    ]},
    {"substance": "GluA1-ΔECD (GluA1 lacking the extracellular ATD and LBD) (domain or fragment)", "values": [
      {"measurement": "stoichiometry N", "setting": "[3]", "result": 4}
    ]},
    {"substance": "GluA1 (rat, flip splice variant), wild type (receptor)", "values": [
      {"measurement": "stoichiometry N", "setting": "[4]", "result": 4},
      {"measurement": "tetramer fraction", "setting": "[4]", "result": 0.84}
    ]},
    {"substance": "GluA2(R)(G823A) (receptor)", "values": [
      {"measurement": "tetramer fraction", "setting": "[5]", "result": 0.45}
    ]},
    {"substance": "GluA2(R) (rat, flip splice variant, edited (R) form) (receptor)", "values": [
      {"measurement": "stoichiometry N", "setting": "[6]", "result": 4},
      {"measurement": "tetramer fraction", "setting": "[6]", "result": 0.89}
    ]},
    {"substance": "GluA1(G816A)-TARP γ-2 tandem", "values": [
      {"measurement": "stoichiometry N", "setting": "[7]", "result": 4}
    ]}
  ]
}
